Source: the Human Domainome abundance scans (Beltran et al. 2025)
± gives the uncertainty stated by the source.

Test: abundance fitness (aPCA) (normalised: wild type 0, dead -1); higher = more abundant; growth selection in yeast, the domain comes from the species named
Details: Homo sapiens

Compared with “Lipoamide acyltransferase component of branched-chain alpha-keto acid dehydrogenase complex, mitochondrial G198V, P11182”, “Lipoamide acyltransferase component of branched-chain alpha-keto acid dehydrogenase complex, mitochondrial Y208H, P11182” is higher in abundance fitness: -1.04 ± 0.085 for the first, -0.075 ± 0.097 for the second.

Going from “Lipoamide acyltransferase component of branched-chain alpha-keto acid dehydrogenase complex, mitochondrial L180G, P11182” to Nanos homolog 2 Y76F, P60321, the abundance fitness rises from -0.609 ± 0.041 to -0.14 ± 0.13.

First: Lipoamide acyltransferase component of branched-chain alpha-keto acid dehydrogenase complex, mitochondrial L209T, P11182
Second: Lipoamide acyltransferase component of branched-chain alpha-keto acid dehydrogenase complex, mitochondrial G193L, P11182
The abundance fitness of the first is higher: -0.131 ± 0.058 for the first, -0.863 ± 0.061 for the second.

First: Lipoamide acyltransferase component of branched-chain alpha-keto acid dehydrogenase complex, mitochondrial V177T, P11182
Second: Lipoamide acyltransferase component of branched-chain alpha-keto acid dehydrogenase complex, mitochondrial L209E, P11182
The abundance fitness of the first is lower: -0.401 ± 0.06 for the first, -0.153 ± 0.04 for the second.

“Lipoamide acyltransferase component of branched-chain alpha-keto acid dehydrogenase complex, mitochondrial I200A, P11182” and “Lipoamide acyltransferase component of branched-chain alpha-keto acid dehydrogenase complex, mitochondrial R199P, P11182” are within error of each other in abundance fitness: -0.66 ± 0.048 for the first, -0.784 ± 0.079 for the second.

Compared with “Lipoamide acyltransferase component of branched-chain alpha-keto acid dehydrogenase complex, mitochondrial A173M, P11182”, “Lipoamide acyltransferase component of branched-chain alpha-keto acid dehydrogenase complex, mitochondrial V191Q, P11182” is lower in abundance fitness: -0.135 ± 0.057 for the first, -0.632 ± 0.061 for the second.

“Lipoamide acyltransferase component of branched-chain alpha-keto acid dehydrogenase complex, mitochondrial E210I, P11182” and “Lipoamide acyltransferase component of branched-chain alpha-keto acid dehydrogenase complex, mitochondrial T174N, P11182” are within error of each other in abundance fitness: -0.239 ± 0.055 for the first, -0.064 ± 0.13 for the second.

First: Lipoamide acyltransferase component of branched-chain alpha-keto acid dehydrogenase complex, mitochondrial S189T, P11182
Second: Lipoamide acyltransferase component of branched-chain alpha-keto acid dehydrogenase complex, mitochondrial G193D, P11182
The abundance fitness of the first is higher: -0.033 ± 0.046 for the first, -0.773 ± 0.088 for the second.

Compared with “Lipoamide acyltransferase component of branched-chain alpha-keto acid dehydrogenase complex, mitochondrial P175R, P11182”, “Lipoamide acyltransferase component of branched-chain alpha-keto acid dehydrogenase complex, mitochondrial I186T, P11182” is lower in abundance fitness: -0.16 ± 0.041 for the first, -0.484 ± 0.091 for the second.

Going from “Lipoamide acyltransferase component of branched-chain alpha-keto acid dehydrogenase complex, mitochondrial S194V, P11182” to “Lipoamide acyltransferase component of branched-chain alpha-keto acid dehydrogenase complex, mitochondrial G214S, P11182”, the abundance fitness rises from -0.864 ± 0.064 to -0.028 ± 0.078.

First: Lipoamide acyltransferase component of branched-chain alpha-keto acid dehydrogenase complex, mitochondrial T213D, P11182
Second: Lipoamide acyltransferase component of branched-chain alpha-keto acid dehydrogenase complex, mitochondrial D204M, P11182
The abundance fitness of the first is higher: 0.049 ± 0.058 for the first, -1.35 ± 0.11 for the second.

“Lipoamide acyltransferase component of branched-chain alpha-keto acid dehydrogenase complex, mitochondrial G193S, P11182” and “Lipoamide acyltransferase component of branched-chain alpha-keto acid dehydrogenase complex, mitochondrial L172W, P11182” are within error of each other in abundance fitness: -0.308 ± 0.056 for the first, -0.206 ± 0.061 for the second.

Compared with “Lipoamide acyltransferase component of branched-chain alpha-keto acid dehydrogenase complex, mitochondrial E210H, P11182”, “Lipoamide acyltransferase component of branched-chain alpha-keto acid dehydrogenase complex, mitochondrial Y208K, P11182” is higher in abundance fitness: -0.319 ± 0.15 for the first, 0.051 ± 0.06 for the second.

Compared with “Lipoamide acyltransferase component of branched-chain alpha-keto acid dehydrogenase complex, mitochondrial L201R, P11182”, “Lipoamide acyltransferase component of branched-chain alpha-keto acid dehydrogenase complex, mitochondrial V192L, P11182” is higher in abundance fitness: -0.209 ± 0.034 for the first, -0.068 ± 0.044 for the second.

Compared with “Lipoamide acyltransferase component of branched-chain alpha-keto acid dehydrogenase complex, mitochondrial V192I, P11182”, “Lipoamide acyltransferase component of branched-chain alpha-keto acid dehydrogenase complex, mitochondrial G198E, P11182” is lower in abundance fitness: -0.041 ± 0.086 for the first, -0.506 ± 0.052 for the second.

“Lipoamide acyltransferase component of branched-chain alpha-keto acid dehydrogenase complex, mitochondrial R179M, P11182” and “Lipoamide acyltransferase component of branched-chain alpha-keto acid dehydrogenase complex, mitochondrial Q212Y, P11182” are within error of each other in abundance fitness: -0.087 ± 0.055 for the first, 0.108 ± 0.44 for the second.

Going from “Lipoamide acyltransferase component of branched-chain alpha-keto acid dehydrogenase complex, mitochondrial L172V, P11182” to “Lipoamide acyltransferase component of branched-chain alpha-keto acid dehydrogenase complex, mitochondrial L209S, P11182”, the abundance fitness rises from -0.107 ± 0.039 to -0.026 ± 0.041.

First: Lipoamide acyltransferase component of branched-chain alpha-keto acid dehydrogenase complex, mitochondrial R178Q, P11182
Second: Lipoamide acyltransferase component of branched-chain alpha-keto acid dehydrogenase complex, mitochondrial G193T, P11182
The abundance fitness of the first is higher: -0.024 ± 0.064 for the first, -0.476 ± 0.047 for the second.

“Lipoamide acyltransferase component of branched-chain alpha-keto acid dehydrogenase complex, mitochondrial I205M, P11182” and “Lipoamide acyltransferase component of branched-chain alpha-keto acid dehydrogenase complex, mitochondrial N185R, P11182” are within error of each other in abundance fitness: -0.28 ± 0.054 for the first, -0.165 ± 0.1 for the second.

Compared with “Lipoamide acyltransferase component of branched-chain alpha-keto acid dehydrogenase complex, mitochondrial S194M, P11182”, “Lipoamide acyltransferase component of branched-chain alpha-keto acid dehydrogenase complex, mitochondrial K196L, P11182” is higher in abundance fitness: -0.628 ± 0.082 for the first, -0.175 ± 0.04 for the second.

First: Lipoamide acyltransferase component of branched-chain alpha-keto acid dehydrogenase complex, mitochondrial N207L, P11182
Second: Lipoamide acyltransferase component of branched-chain alpha-keto acid dehydrogenase complex, mitochondrial I200R, P11182
The abundance fitness of the first is higher: -0.048 ± 0.048 for the first, -0.764 ± 0.045 for the second.

“Lipoamide acyltransferase component of branched-chain alpha-keto acid dehydrogenase complex, mitochondrial K211I, P11182” and “Lipoamide acyltransferase component of branched-chain alpha-keto acid dehydrogenase complex, mitochondrial E210S, P11182” are within error of each other in abundance fitness: -0.122 ± 0.061 for the first, -0.019 ± 0.042 for the second.

Going from “Lipoamide acyltransferase component of branched-chain alpha-keto acid dehydrogenase complex, mitochondrial G195K, P11182” to “Lipoamide acyltransferase component of branched-chain alpha-keto acid dehydrogenase complex, mitochondrial K196V, P11182”, the abundance fitness rises from -0.566 ± 0.13 to -0.124 ± 0.037.

First: Lipoamide acyltransferase component of branched-chain alpha-keto acid dehydrogenase complex, mitochondrial G195N, P11182
Second: Lipoamide acyltransferase component of branched-chain alpha-keto acid dehydrogenase complex, mitochondrial A176V, P11182
The abundance fitness of the first is lower: -0.611 ± 0.12 for the first, -0.168 ± 0.041 for the second.

“Lipoamide acyltransferase component of branched-chain alpha-keto acid dehydrogenase complex, mitochondrial E190W, P11182” showed an abundance fitness of -0.192 ± 0.046.
